The values that follow are results of earlier work, collected in patent US5624831A, “Immobilized acetylcholinesterase stabilized by a film of gelatin or albumin containing trehalose” (priority 1994, dated 1997).

This data set concerns acetylcholinesterase extracted from the torpedo fish. To be noted: kept dry at 4° C. for longer than 7 days.

B1: acetylcholinesterase extracted from the torpedo fish: acetylcholinesterase extracted from the torpedo fish (protein, UniProt P04058 22-564, looked up)
Acetylcholinesterase: DDHSELLVNTKSGKVMGTRVPVLSSHISAFLGIPFAEPPVGNMRFRRPEPKKPWSGVWNASTYPNNCQQYVDEQFPGFSGSEMWNPNREMSEDCLYLNIWVPSPRPKSTTVMVWIYGGGFYSGSSTLDVYNGKYLAYTEEVVLVSLSYRVGAFGFLALHGSQEAPGNVGLLDQRMALQWVHDNIQFFGGDPKTVTIFGESAGGASVGMHILSPGSRDLFRRAILQSGSPNCPWASVSVAEGRRRAVELGRNLNCNLNSDEELIHCLREKKPQELIDVEWNVLPFDSIFRFSFVPVIDGEFFPTSLESMLNSGNFKKTQILLGVNKDEGSFFLLYGAPGFSKDSESKISREDFMSGVKLSVPHANDLGLDAVTLQYTDWMDDNNGIKNRDGLDDIVGDHNVICPLMHFVNKYTKFGNGTYLYFFNHRASNLVWPEWMGVIHGYEIEFVFGLPLVKELNYTAEEEALSRRIMHYWATFAKTGNPNEPHSQESKWPLFTTKEQKFIDLNTEPMKVHQRLRVQMCVFWNQFLPKLLNATACDGELSS
On to B1, for which the “loss of enzymatic activity (in words)” value was “looses normally all its enzymatic activity”.
